{"source": "patent US20250243262A1", "key": {"[1]": {"molecular_target": "rPcrV protein (recombinant Pseudomonas PcrV) (Pseudomonas aeruginosa)", "test": "SPR (Bio-Rad ProteOn XPR36); antibody captured, rPcrV as analyte; table under the sensorgram"}, "[2]": {"molecular_target": "rPcrV protein (recombinant Pseudomonas PcrV) (Pseudomonas aeruginosa)", "test": "SPR (Bio-Rad ProteOn XPR36); antibody captured on GLC sensor chip with anti-human IgG, rPcrV injected at multiple concentrations"}}, "data": [{"binder": "V2L2-GL (V2L2-germlined mAb) (antibody, V domains shown) VH: EVQLLESGGGLVQPGGSLRLSCAASGFTFSSYAMNWVRQAPGKGLEWVSAITISGITAYYTDSVKGRFTISRDNSKNTLYLQMNSLRAEDTAVYYCAKEEFLPGTHYYYGMDVWGQGTTVTVSS VL: AIQMTQSPSSLSASVGDRVTITCRASQGIRNDLGWYQQKPGKAPKLVIYSASTLQSGVPSRFSGSGSGTDFTLSISSLQPDDFATYYCLQDYNYPWTFGQGTKVEIK", "values": [{"measurement": "Kd", "setting": "[1]", "value": 0.143, "unit": "nM"}, {"measurement": "koff", "setting": "[1]", "value": 0.000116, "unit": "s⁻¹"}, {"measurement": "kon", "setting": "[1]", "value": 808000, "unit": "M⁻¹ s⁻¹"}, {"measurement": "Kd", "setting": "[2]", "value": 0.143, "unit": "nM"}, {"measurement": "koff", "setting": "[2]", "value": 0.000116, "unit": "s⁻¹"}, {"measurement": "kon", "setting": "[2]", "value": 808000, "unit": "M⁻¹ s⁻¹"}]}]}
